According to publication PMC4415419, “The bZIP transcription factor HY5 interacts with the promoter of the monoterpene synthase gene QH6 in modulating its rhythmic expression”:

Target: T1, GST-HY5 (Arabidopsis thaliana, UniProt O24646 1-168)
T1 sequence: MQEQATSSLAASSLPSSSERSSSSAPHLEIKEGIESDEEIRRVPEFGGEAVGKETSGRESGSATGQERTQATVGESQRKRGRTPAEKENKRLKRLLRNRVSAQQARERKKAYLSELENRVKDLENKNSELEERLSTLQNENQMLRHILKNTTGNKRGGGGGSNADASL
Test: EMSA; 5 ug protein, 20 fmol probe; shift abolished by unlabeled 52-bp competitor (0.5-4 pmol); LightShift Chemiluminescent EMSA kit (Pierce), 20 uL, 8% native PAGE in 1x TBE; salt, pH and temperature not stated
Details: protein: recombinant; tags: N-terminal GST (pGEX-4T-1); chain copies: 2; label: biotin; blunt

B1: 391-442 (QH6 promoter G-box probe) (dsDNA)
DNA 1: CCTTTAAGTTGCTCTATTTTGACACGTGGCAAAATAATATCTATCTACCCAC
DNA 2: GTGGGTAGATAGATATTATTTTGCCACGTGTCAAAATAGAGCAACTTAAAGG
- binding result: binds
